Results as given in patent publication US20190170753A1 (ICAHN SCHOOL OF MEDICINE AT MOUNT SINAI, published 2019).
Where no end group is shown, it is not given here.

Experiments:
[1] = biological target: T1, HCV core peptide 1 (hepatitis C virus, N-terminal biotin; C-terminal amide); experiment: peptide EIA, 2 ug/mL IgG;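 note: purified mouse IgG binding to individually well-coated synthetic peptides, detected with peroxidase anti-mouse IgG Fc and o-phenylenediamine, IgG incubated at least 1 h at room temperature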
T1 construct: range 1-15
Procedure: (§1) The coated plates were kept dry in a sealed foil pouch and stored at <10 degrees C. until ready for use. A peptide coated plate for each test antibody was blocked using 3% BSA in PBS with 0.5% Tween 20. The blocked plates were washed with distilled water and a 2 ug/mL solution of purified IgG from each test sample diluted in BSA block solution was added to each peptide coated well of the blocked plate and allowed to incubate at room temperature for at least one hour. Following incubation the plates were washed with distilled water. A 200 ng/mL solution of peroxidase labeled F(ab′)2 fragment goat anti-mouse IgG Fc fragment specific (Jackson Immunoresearch) in BSA block solution was added to all wells and incubated at room temperature for 30 minutes. The plates were washed with distilled water and o-phenylenediamine substrate was used as the chromagen to generate signal. Plates were read at 492 nm and the results were analyzed.

[2] = biological target: T2, HCV core peptide 2 (hepatitis C virus, N-terminal biotin; C-terminal amide); experiment: peptide EIA, 2 ug/mL IgG;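 note: purified mouse IgG binding to individually well-coated synthetic peptides, detected with peroxidase anti-mouse IgG Fc and o-phenylenediamine, IgG incubated at least 1 h at room temperature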
T2 construct: range 3-17
Procedure: as §1

[3] = biological target: T3, HCV core peptide 5 (hepatitis C virus, N-terminal biotin; C-terminal amide); experiment: peptide EIA, 2 ug/mL IgG;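 note: purified mouse IgG binding to individually well-coated synthetic peptides, detected with peroxidase anti-mouse IgG Fc and o-phenylenediamine, IgG incubated at least 1 h at room temperature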
T3 construct: range 9-23
Procedure: as §1

[4] = biological target: T4, HCV core peptide 6 (hepatitis C virus, N-terminal biotin; C-terminal amide); experiment: peptide EIA, 2 ug/mL IgG;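 note: purified mouse IgG binding to individually well-coated synthetic peptides, detected with peroxidase anti-mouse IgG Fc and o-phenylenediamine, IgG incubated at least 1 h at room temperature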
T4 construct: range 11-25
Procedure: as §1

[5] = biological target: T5, HCV core peptide 7 (hepatitis C virus, N-terminal biotin; C-terminal amide); experiment: peptide EIA, 2 ug/mL IgG
T5 construct: range 13-27
Procedure: as §1

[6] = biological target: T6, HCV core peptide 8 (hepatitis C virus, N-terminal biotin; C-terminal amide); experiment: peptide EIA, 2 ug/mL IgG
T6 construct: range 15-29
Procedure: as §1

[7] = biological target: T7, HCV core peptide 14 (hepatitis C virus, N-terminal biotin; C-terminal amide); experiment: peptide EIA, 2 ug/mL IgG
T7 construct: range 27-41
Procedure: as §1

[8] = biological target: T8, HCV core peptide 17 (hepatitis C virus, N-terminal biotin; C-terminal amide); experiment: peptide EIA, 2 ug/mL IgG
T8 construct: range 33-47
Procedure: as §1

[9] = biological target: T9, HCV core peptide 18 (hepatitis C virus, N-terminal biotin; C-terminal amide); experiment: peptide EIA, 2 ug/mL IgG
T9 construct: range 35-49
Procedure: as §1

[10] = biological target: T10, HCV core peptide 22 (hepatitis C virus, N-terminal biotin; C-terminal amide); experiment: peptide EIA, 2 ug/mL IgG
T10 construct: range 43-57
Procedure: as §1

[11] = biological target: T11, HCV core peptide 25 (hepatitis C virus, N-terminal biotin; C-terminal amide); experiment: peptide EIA, 2 ug/mL IgG
T11 construct: range 49-63
Procedure: as §1

[12] = biological target: T12, HCV core peptide 33 (hepatitis C virus, N-terminal biotin; C-terminal amide); experiment: peptide EIA, 2 ug/mL IgG
T12 construct: range 65-79
Procedure: as §1

[13] = biological target: T13, HCV core peptide 37 (hepatitis C virus, N-terminal biotin; C-terminal amide); experiment: peptide EIA, 2 ug/mL IgG
T13 construct: range 73-87
Procedure: as §1

[14] = biological target: T14, HCV core peptide 38 (hepatitis C virus, N-terminal biotin; C-terminal amide); experiment: peptide EIA, 2 ug/mL IgG
T14 construct: range 75-89
Procedure: as §1

[15] = biological target: T15, HCV core peptide 39 (hepatitis C virus, N-terminal biotin; C-terminal amide); experiment: peptide EIA, 2 ug/mL IgG
T15 construct: range 77-91
Procedure: as §1

[16] = biological target: T16, HCV core peptide 43 (hepatitis C virus, N-terminal biotin; C-terminal amide); experiment: peptide EIA, 2 ug/mL IgG
T16 construct: range 85-99
Procedure: as §1

[17] = biological target: T17, HCV core peptide 51 (hepatitis C virus, HELM PEPTIDE1{[O=C1N[C@H]2[C@H](CS[C@H]2CCCCC(=O)[*:2])N1].S.G.S.G.R.G.S.R.P.S.W.G.P.T.D.P.R.R.R.[am]}$$$$V2.0; SMILES …); experiment: peptide EIA, 2 ug/mL IgG
T17 peptide: SGSGRGSRPSWGPTDPRRR
Procedure: as §1

[18] = biological target: HCV core peptide 56 (hepatitis C virus, N-terminal biotin; C-terminal amide); experiment: peptide EIA, 2 ug/mL IgG
Procedure: as §1

[19] = biological target: HCV core peptide 57 (hepatitis C virus, N-terminal biotin; C-terminal amide); experiment: peptide EIA, 2 ug/mL IgG
Procedure: as §1

[20] = biological target: HCV core peptide 63 (hepatitis C virus, N-terminal biotin; C-terminal amide); experiment: peptide EIA, 2 ug/mL IgG
Procedure: as §1

[21] = biological target: HCV core peptide 71 (hepatitis C virus, N-terminal biotin; C-terminal amide); experiment: peptide EIA, 2 ug/mL IgG
Procedure: as §1

[22] = biological target: T18, HCV core peptide 75 (hepatitis C virus, N-terminal biotin; C-terminal amide); experiment: peptide EIA, 2 ug/mL IgG
T18 construct: range 149-163
Procedure: as §1

[23] = biological target: HCV core peptide 80 (hepatitis C virus, N-terminal biotin; C-terminal amide); experiment: peptide EIA, 2 ug/mL IgG
Procedure: as §1

[24] = biological target: T19, HCV core peptide 83 (hepatitis C virus, N-terminal biotin; C-terminal amide); experiment: peptide EIA, 2 ug/mL IgG
T19 construct: range 165-179
Procedure: as §1

[25] = biological target: T20, C113WT biotin labeled HCV core peptide (hepatitis C virus, also: biotin labeled, position not given here); experiment: capture EIA; Ab 1000 ng/mL; bt-peptide 500 ng/mL
T20 peptide: RGSRPSWGPTD

[26] = biological target: T21, Mut1T110N biotin labeled HCV core peptide (hepatitis C virus, biotin labeled (position not given)); experiment: capture EIA; Ab 1.953 ng/mL; bt-peptide 500 ng/mL
T21 peptide: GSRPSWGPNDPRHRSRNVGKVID

[27] = biological target: Mut6T110S biotin labeled HCV core peptide (hepatitis C virus, biotin labeled (position not given)); experiment: capture EIA; Ab 1.953 ng/mL; bt-peptide 500 ng/mL
[28] = biological target: T20, C113WT biotin labeled HCV core peptide; experiment: capture EIA; Ab 1.953 ng/mL; bt-peptide 500 ng/mL
Procedure: (§2) Assay wells were coated with sheep anti-mouse IgG Fc specific antibody and incubated overnight. The coating solution was then removed; the wells blocked using BSA/tween in PBS and then washed with dH2O. […] Next, biotin labeled peptides (diluted to 500 ng/mL in block) were added, the plates incubated for 10 minutes while shaking at 700 rpm and then washed. Peroxidase conjugated streptavidin (diluted to 200 ng/mL in block) was then added to all assay wells, incubated for 20 minutes while shaking at 700 rpm and then washed. Finally, color was developed using OPD and signal quenched using 1N H₂SO₄. Signal was read at 492 nm.

[29] = biological target: T22, C113T109N biotin labeled HCV core peptide (hepatitis C virus, also: biotin labeled, position not given here); experiment: capture EIA; Ab 1.953 ng/mL; bt-peptide 500 ng/mL
T22 construct: also called C113T110N
T22 peptide: RGSRPSWGPND

[30] = biological target: T23, 92-133 biotin labeled HCV core peptide (hepatitis C virus, UniProt Q9WMX2 92-133, chain 1: biotin label (bt-pep). Its position and any spacer are not visible in the passages shown.); experiment: capture EIA; Ab 1.953 ng/mL; bt-peptide 500 ng/mL
T23 construct: Only the label 92-133 is printed
T23 peptide: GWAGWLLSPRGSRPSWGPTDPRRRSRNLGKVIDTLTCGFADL
Procedure: as §2

[31] = biological target: T24, WT1STHV biotin labeled HCV core peptide (hepatitis C virus, biotin labeled (position not given)); experiment: capture EIA; Ab 1.953 ng/mL; bt-peptide 500 ng/mL
T24 peptide: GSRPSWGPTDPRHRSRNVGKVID

B1: Neo4 mouse monoclonal antibody (antibody, V domains shown)
VH: QIQLKESGPAVIKPSQSLSLTCIVSGFSITSSVYCWQWIRQPPGKGLEWMGRICYDGSVDYSPSITSRGTISRDTSLNKVFFQLSSVTNEDTAMYYCSRENHIDYYDTTYPSFDVWGAGTTVTVSS
VL: DIVLTQSPASLIVSLGQRATISCRASKSVNEYGYTYMHWYQQKPGLPPKLLIYLASNLDSGVPARFSGSGSGTDFTLNIHPVEEEDAATYYCQHSRELPYTFGGGTKLEIKR
notes: Mouse hybridoma antibody, isotype IgG1, purified with Protein G; also called HCV Neo4
- OD (A492 nm) [1]: 0.06 OD
- OD (A492 nm) [2]: 0.06 OD
- OD (A492 nm) [3]: 0.05 OD
- OD (A492 nm) [4]: 0.06 OD
- OD (A492 nm) [5]: 0.07 OD
- OD (A492 nm) [6]: 0.06 OD
- OD (A492 nm) [7]: 0.06 OD
- OD (A492 nm) [8]: 0.04 OD
- OD (A492 nm) [9]: 0.05 OD
- OD (A492 nm) [10]: 0.07 OD
- OD (A492 nm) [11]: 0.04 OD
- OD (A492 nm) [12]: 0.05 OD
- OD (A492 nm) [13]: 0.04 OD
- OD (A492 nm) [14]: 0.05 OD
- OD (A492 nm) [15]: 0.05 OD
- OD (A492 nm) [16]: 0.05 OD
- OD (A492 nm) [17]: 0.96 OD
- OD (A492 nm) [18]: 0.04 OD
- OD (A492 nm) [19]: 0.05 OD
- OD (A492 nm) [20]: 0.04 OD
- OD (A492 nm) [21]: 0.05 OD
- OD (A492 nm) [22]: 0.1 OD
- OD (A492 nm) [23]: 0.05 OD
- OD (A492 nm) [24]: 0.05 OD
- signal at 492 nm [25]: 0.222 A492
- signal at 492 nm [26]: 0.0728 A492
- signal at 492 nm [27]: 0.0717 A492
- signal at 492 nm [28]: 0.0765 A492
- signal at 492 nm [29]: 0.0853 A492
- signal at 492 nm [30]: 0.129 A492
- signal at 492 nm [31]: 0.409 A492
